3 molecules from patent US20180306789A1 (published 2018) can be followed below.

The target of test [1] is T1, DDB1 and CUL4 associated factor 4-like 2 (DCAF4L2); peptide DCAF4L2-001 peptide on HLA-A*02:01 (human).
T1 peptide: ILQDGQFLV
In words: multimer staining.

For test [2], the target named is T2, VPS39-001 (peptide code; source protein not spelled out) peptide on HLA-A*02:01 (human).
T2 peptide: LLQDKQFEL
As to the kind of experiment: cytokine release.

The target of test [3] is T3, AHR-002 (peptide code; source protein not spelled out) peptide on HLA-A*02:01 (human).
T3 peptide: NLQEGEFLL
As to the kind of experiment: cytokine release.

In test [4] the target is T4, PFN1-001 (peptide code; source protein not spelled out) peptide on HLA-A*02:01 (human).
T4 peptide: LLQDGEFSM
As to the kind of experiment: cytokine release.

Test [5] addresses T5, GRB14-002 (peptide code; source protein not spelled out) peptide on HLA-A*02:01 (human).
T5 peptide: GLVDGVFLV
As to the kind of experiment: cytokine release.

The target in test [6] is T6, KCM-001 (peptide code; source protein not spelled out) peptide on HLA-A*02:01 (human).
T6 peptide: TLQNSQFLL
As to the kind of experiment: cytokine release.

Test [7] has as its target T7, WRN-002 (peptide code; source protein not spelled out) peptide on HLA-A*02:01 (human).
T7 peptide: ILQDLQPFL
In words: cytokine release.

In test [8] the target is T8, SNR-004 (peptide code; source protein not spelled out) peptide on HLA-A*02:01 (human).
T8 peptide: ILQDGRIFI
In words: cytokine release.

For test [9], the target named is T9, GSTA4-001 (peptide code; source protein not spelled out) peptide on HLA-A*02:01 (human).
T9 peptide: KLQDGNHLL
In words: cytokine release.

The target of test [10] is T10, MUC-009 (peptide code; source protein not spelled out) peptide on HLA-A*02:01 (human).
T10 peptide: ILQEGTFKA
As to the kind of experiment: cytokine release.

The target in test [11] is T11, VPS51-001 (peptide code; source protein not spelled out) peptide on HLA-A*02:01 (human).
T11 peptide: TLTDEQFLV
In words: cytokine release.

B1: R52P2G11 (TCR, V domains shown)
Valpha: KNQVEQSPQSLIILEGKNCTLQCNYTVSPFSNLRWYKQDTGRGPVSLTIMTFSENTKSNGRYTATLDADTKQSSLHITASQLSDSASYICVVSAYGKLQFGAGTQVVVTP
Vbeta: DAGVIQSPRHEVTEMGQEVTLRCKPISGHNSLFWYRQTMMRGLELLIYFNNNVPIDDSGMPEDRFSAKMPNASFSTLKIQPSEPRDSAVYFCASSLGSPDGNQPQHFGDGTRLSIL
As for B1, the binding result was “recognises” in test [1]; “no recognition” in test [2]; “no recognition” in test [3]; “no recognition” in [4]; “no recognition” in test [5]; “no recognition” in test [6]. For the same molecule, the binding result in test [7], in test [8], in test [9], in [10] and in test [11] was “no recognition” each time.

B2: R53P2A9 (TCR, V domains shown)
Valpha: AQTVTQSQPEMSVQEAETVTLSCTYDTSESDYYLFWYKQPPSRQMILVIRQEAYKQQNATENRFSVNFQKAAKSFSLKISDSQLGDAAMYFCAYNSYAGGTSYGKLTFGQGTILTVHP
Vbeta: DAGVTQSPTHLIKTRGQQVTLRCSPISGHKSVSWYQQVLGQGPQFIFQYYEKEERGRGNFPDRFSARQFPNYSSELNVNALLLGDSALYLCASSLDGTSEQYFGPGTRLTVT
With B2, the binding result in [1] was “recognises”; in test [2], “no recognition”; in test [3] it was “no recognition”; in test [4], “no recognition”; in test [5], “no recognition”; in test [6] it was “no recognition”. Also, the binding result in [7], in test [8], in [9], in [10] and in test [11] was “no recognition” throughout.

B3: R36P3F9 (TCR, V domains shown)
Valpha: SQQGEEDPQALSIQEGENATMNCSYKTSINNLQWYRQNSGRGLVHLILIRSNEREKHSGRLRVTLDTSKKSSSLLITASRAADTASYFCATVSNYQLIWGAGTKLIIKP
Vbeta: EAQVTQNPRYLITVTGKKLTVTCSQNMNHEYMSWYRQDPGLGLRQIYYSMNVEVTDKGDVPEGYKVSRKEKRNFPLILESPSPNQTSLYFCASSSTSGGLSGETQYFGPGTRLLVL
For B3, the binding result is given as “recognises” in test [1]; “no recognition” in [2]; “no recognition” in test [3]; “no recognition” in test [4]; “no recognition” in [5]; “no recognition” in test [6]. Also, the binding result in test [7], in test [8], in test [9], in test [10] and in [11] was “no recognition” each time.
